Publication PMC6449081

Assays:
[1] = target: Dec E73R with a C-terminal histidine tag (phage L); experiment: native gel or EMSA; native gel of purified Dec variants in solution
[2] = target: phage L decoration protein Dec, capsid-bound trimer in native phage L virions (phage L); experiment: cryo-EM structure; native phage L virions, vitrified; icosahedral reconstruction, 4.2 Å; NMR OB-fold of Dec and a coat homology model fitted into the map
[3] = target: phage P22 coat protein E81R:E323R, in P22 phage particles (phage P22) (UniProt P26747); experiment: co-sedimentation; purified Dec added to purified P22 phages with WT or variant coat protein; free Dec separated by cesium chloride density gradient sedimentation; phage bands TCA-precipitated, SDS-PAGE, Coomassie bands of coat and Dec quantitated and normalized to the ratio in native P22 particles bound with Dec
[4] = target: Dec K30D with a C-terminal histidine tag (phage L); experiment: native gel or EMSA; native gel of purified Dec variants in solution
[5] = target: Dec Y31A with a C-terminal histidine tag (phage L); experiment: as above
[6] = target: Dec Y49E with a C-terminal histidine tag (phage L); experiment: as above
[7] = target: Dec Y71A with a C-terminal histidine tag (phage L); experiment: as above

With “Dec E73R with a C-terminal histidine tag (natural protein)” the stoichiometry N [1] was 3.

“phage L decoration protein Dec, capsid-bound trimer in native phage L virions (natural protein)” gave a stoichiometry N [2] of 3.

For “recombinant wild type Dec with a C-terminal histidine tag (natural protein)”, the Dec binding, normalized to WT (%) [3] was under 20%.

“Dec K30D with a C-terminal histidine tag (natural protein)” was tested, and the stoichiometry N [4] was 3.

Substance “Dec Y31A with a C-terminal histidine tag (natural protein)” has a stoichiometry N [5] of 3.

With “Dec Y49E with a C-terminal histidine tag (natural protein)” the stoichiometry N [6] was 3.

“Dec Y71A with a C-terminal histidine tag (natural protein)” was tested, and the stoichiometry N [7] was 3.
